Key:
Assay in all cases: SPOT array
[1] = target: T1, Yfr024 SH3 (LSB3_YEAST), P43603
T1 chain: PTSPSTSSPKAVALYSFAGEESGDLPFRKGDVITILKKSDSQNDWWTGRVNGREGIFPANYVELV

[2] = target: T2, Boi2 SH3 (BOI2_YEAST), P39969
T2 chain: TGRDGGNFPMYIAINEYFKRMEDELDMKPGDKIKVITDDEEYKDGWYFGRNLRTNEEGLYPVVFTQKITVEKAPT

[3] = target: T3, Boi1 SH3 (BOI1_YEAST), P38041
T3 chain: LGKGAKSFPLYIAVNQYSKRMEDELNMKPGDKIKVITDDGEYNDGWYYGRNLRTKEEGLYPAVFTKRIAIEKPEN

[4] = target: T4, Myo5 SH3 (MYO5_YEAST), Q04439
T4 chain: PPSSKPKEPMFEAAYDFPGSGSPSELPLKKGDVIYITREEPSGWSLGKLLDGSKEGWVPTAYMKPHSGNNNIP

[5] = target: T5, Rvs167 SH3 (RV167_YEAST), P39743
T5 chain: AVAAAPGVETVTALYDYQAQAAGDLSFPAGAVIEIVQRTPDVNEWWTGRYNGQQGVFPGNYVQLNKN

[6] = target: Sho1 SH3 (SHO1_YEAST), P40073
[7] = target: T6, Yhr016c SH3 (YSC84_YEAST), P32793
T6 chain: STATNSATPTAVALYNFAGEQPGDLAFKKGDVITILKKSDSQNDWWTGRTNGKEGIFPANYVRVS

Chain of Sho1 SH3 (SHO1_YEAST), P40073 (P40073 295-366): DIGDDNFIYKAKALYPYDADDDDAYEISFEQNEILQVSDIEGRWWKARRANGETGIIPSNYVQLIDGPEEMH

Row | Binder | normalised SPOT signal, Boehringer light units (BLU); mean over the file's lines of this peptide [1] | normalised SPOT signal, Boehringer light units (BLU); mean over the file's lines of this peptide [2] | normalised SPOT signal, Boehringer light units (BLU); mean over the file's lines of this peptide [3] | normalised SPOT signal, Boehringer light units (BLU); mean over the file's lines of this peptide [4] | normalised SPOT signal, Boehringer light units (BLU); mean over the file's lines of this peptide [5] | normalised SPOT signal, Boehringer light units (BLU); mean over the file's lines of this peptide [6] | normalised SPOT signal, Boehringer light units (BLU); mean over the file's lines of this peptide [7]
1 | LSKLRLSPENPSNT [YKL101W 1214-1227] | 27.1 | 33.2 | 471 | 157 | 37.4 | 54.8 | 7.9
2 | LPLSRVQPVQPSQT [YNL007C 295-308] | 163 | 27.1 | 31.9 | 122 | 19.3 | 32.8 | 21
3 | LQQRRYYPIFPGSI [YBL035C 565-578] | 474 | 472 | 6230 | 279 | 91 | 38.8 | 44.5
4 | LQYHKKNPYSPLFS [YPL020C 12-25] | 73.4 | 99.3 | 451 | 318 | 208 | 63.3 | 80.3
5 | LPEKKNSPTTPSVF [YOL152W 75-88] | 11.4 | 0 | 88.9 | 102 | 67.3 | 54.9 | 22.9
6 | LQNAKNDPLPPVIE [YDL077C 56-69] | 10.7 | 21.8 | 120 | 58.8 | 47 | 0.2 | 37.2
7 | LNRKKVTPQLPKVT [YFL013C 529-542] | 142 | 27.9 | 384 | 500 | 75.9 | 263 | 22.7
8 | LSFDRPPPLTPEKN [YER032W 254-267] | 124 | 0 | 92.6 | 174 | 91.3 | 48.1 | 7.4
9 | LNTMKKRPAPPSLP [YOR231W 77-90] | 1440 | 72.5 | 97.3 | 22300 | 271 | 374 | 202
10 | LPLPKLRPPRPTFA [YKL097C 62-75] | 16600 | 3.7 | 3930 | 77900 | 87.3 | 76.3 | 4270
11 | LPFPRKNPKLPENT [YHR099W 3263-3276] | 322 | 38.3 | 289 | 147 | 40.2 | 149 | 44.2
12 | LPEPRFYPLSPKNN [YCL051W 94-107] | 202 | 47 | 95.3 | 289 | 49.4 | 33 | 30.9
13 | LRISKPDPESPSKL [YBL101C 847-860] | 205 | 0.6 | 242 | 246 | 109 | 22.3 | 74.5
14 | LNRQKNYPDAPAIF [YKL216W 87-100] | 38.6 | 7.9 | 71.2 | 86.4 | 63.3 | 56.9 | 19.7
15 | LPKLKSNPSVPHLH [YBR218C 505-518] | 71.1 | 20.5 | 843 | 193 | 52.3 | 114 | 5.2
16 | LSGTRLVPNSPLLW [YBR055C 692-705] | 1410 | 29.6 | 73.7 | 432 | 1460 | 94 | 80.1

Reference: PMC314469, “Protein Interaction Networks by Proteome Peptide Scanning” (PLoS Biology, 2004)
